Consider 13 substances from US20240132578A1.

Values joined by “and” are separate entries in the source; they are usually repeats but may differ in a detail not shown here. Equal entries are not always repeated.

What all share (test): cell-based or functional assay
For experiment [1], the target named is HIV-1 92RW020 envelope glycoprotein (Env) on pseudovirus (HIV-1).
The target of experiment [2] is HIV-1 JRFL envelope glycoprotein (Env) on pseudovirus (HIV-1).
Experiment [3] addresses HIV-1 94UG103 envelope glycoprotein (Env) on pseudovirus (HIV-1).
For experiment [4], the target named is HIV-1 JRCSF envelope glycoprotein (Env) on pseudovirus (HIV-1) (UniProt P20871).
For experiment [5], the target named is HIV-1 APV6 envelope glycoprotein (Env) on pseudovirus (HIV-1).
In experiment [6] the target is HIV-1 MGRM-C-026 envelope glycoprotein (Env) on pseudovirus (HIV-1).
The target of experiment [7] is HIV-1 NL43 envelope glycoprotein (Env) on pseudovirus (HIV-1).
Experiment [8] deals with HIV-1 MGRM-C-027 envelope glycoprotein (Env) on pseudovirus (HIV-1).
The target of experiment [9] is HIV-1 APV17 envelope glycoprotein (Env) on pseudovirus (HIV-1).
In experiment [10] the target is HIV-1 92BR020 envelope glycoprotein (Env) on pseudovirus (HIV-1).
The target of experiment [11] is HIV-1 MGRM-C-028 envelope glycoprotein (Env) on pseudovirus (HIV-1).
The target in experiment [12] is HIV-1 MGRM-A-010 envelope glycoprotein (Env) on pseudovirus (HIV-1).
In experiment [13] the target is HIV-1 93UG077 envelope glycoprotein (Env) on pseudovirus (HIV-1).
Experiment [14] addresses HIV-1 APV13 envelope glycoprotein (Env) on pseudovirus (HIV-1).
Experiment [15] deals with HIV-1 93IN905 envelope glycoprotein (Env) on pseudovirus (HIV-1).
Experiment [16] addresses HIV-1 Env of pseudovirus 92TH021 (HIV-1).
The target of experiment [17] is HIV-1 Env of pseudovirus JRCSF (HIV-1) (UniProt P20871).
Experiment [18] deals with HIV-1 Env of pseudovirus MGRM-C-26 (HIV-1).
Experiment [19] has as its target HIV-1 Env of pseudovirus 92BR020 (HIV-1).
The target of experiment [20] is HIV-1 Env of pseudovirus 94UG103 (HIV-1).

Chain of PGT-136 monoclonal antibody (5329_C19; 5366_P21) (VH): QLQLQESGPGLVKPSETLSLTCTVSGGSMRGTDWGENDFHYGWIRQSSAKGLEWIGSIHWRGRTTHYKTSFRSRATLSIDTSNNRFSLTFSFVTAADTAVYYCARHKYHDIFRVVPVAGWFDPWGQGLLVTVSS
Chain of PGT-136 monoclonal antibody (5329_C19; 5366_P21) (VL): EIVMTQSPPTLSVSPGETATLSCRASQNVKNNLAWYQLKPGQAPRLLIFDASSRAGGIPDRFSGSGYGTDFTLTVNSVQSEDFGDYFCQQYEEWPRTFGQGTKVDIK

Take PGT-126 monoclonal antibody (5141_B17): the IC50 neutralization in experiment [1] was 0.0046 mg/L; in experiment [2] it was 0.014 mg/L; in [3], 0.0091 mg/L; in experiment [4], 0.0061 mg/L; in experiment [5], 0.0249 mg/L; in experiment [6], 0.0076 mg/L. Besides, the IC50 neutralization in experiment [7] is above 10 mg/L; in [8], 1.14 mg/L; in experiment [9], 0.501 mg/L; in experiment [10] it was 0.0163 mg/L; in experiment [11], 0.283 mg/L; in [12] it was 0.0033 mg/L. Also, the results for the IC50 neutralization in [13], in [14] and in [15] were 0.0256 mg/L, 0.012 mg/L and 0.0194 mg/L, respectively.
Turning to PGT-123 monoclonal antibody (4858_P08), the IC50 neutralization in experiment [1] came out at 0.0038 mg/L; in [2] it was 0.0283 mg/L; in [3] it was 0.846 mg/L; in [4], 0.0423 mg/L; in [5], 0.0328 mg/L; in experiment [6] it was 0.0031 mg/L. Besides, the IC50 neutralization in experiment [7] was above 10 mg/L; in experiment [8], 0.0169 mg/L; in [9] it was 0.18 mg/L; in experiment [10] it was 0.013 mg/L; in [11] it was 0.443 mg/L; in experiment [12], 0.492 mg/L. Also, the IC50 neutralization in [13] came out at 0.0303 mg/L; in [14], 0.222 mg/L; in experiment [15], 0.0071 mg/L.
In the case of PGT-130 monoclonal antibody (5147_N06), the IC50 neutralization was 0.014 mg/L in [1]; 0.0346 mg/L in experiment [2]; 0.635 mg/L in [3]; 0.0089 mg/L in [4]; above 10 mg/L in experiment [5]; 0.0173 mg/L in experiment [6]. The IC50 neutralization in experiment [7] was above 10 mg/L; in experiment [8], 0.0052 mg/L; in experiment [9], above 10 mg/L; in experiment [10], 1.12 mg/L; in [11] it was above 10 mg/L; in experiment [12] it was 0.0054 mg/L. Moreover, the IC50 neutralization in experiment [13] is above 10 mg/L; in experiment [14] it was 0.0345 mg/L; in experiment [15], 0.0182 mg/L.
With “PGT-135 monoclonal antibody (5343_B08; 5344_E16)”, the IC50 neutralization is 0.157 mg/L in [1]; above 10 mg/L in [2]; above 10 mg/L in experiment [3]; 0.113 mg/L in [4]; above 10 mg/L in [5]; 0.0123 mg/L in [6]. Moreover, the IC50 neutralization in experiment [7] was 6.79 mg/L; in experiment [8], above 10 mg/L; in [9], above 10 mg/L; in [10] it was 0.104 mg/L; in [11] it was 2.16 mg/L; in experiment [12] it was above 10 mg/L. For the same substance, the IC50 neutralization is above 10 mg/L in experiment [13], 0.545 mg/L in [14] and 0.0183 mg/L in experiment [15].
For the substance “Antibody of B cell culture well 5117_E22 (labelled PGT-133 in Table 26)”, the Primary Neutralization Index (B cell culture supernatant) in experiment [16] turned out to be 42.5; in experiment [17], 3.6; in experiment [18], 3.4.
Regarding “PGT-121 monoclonal antibody (4838_L06; 4873_E03)”, in [7], the IC50 neutralization is above 10 mg/L.
As for PGT-122 monoclonal antibody (4877_D15), the IC50 neutralization stood at 0.0072 mg/L in [1]; 0.0471 mg/L in experiment [2]; 1.46 mg/L in [3]; 0.0727 mg/L in experiment [4]; 0.0851 mg/L in experiment [5]; 0.0089 mg/L in experiment [6]. The IC50 neutralization in [7] was above 10 mg/L; in [8] it was 0.0388 mg/L; in experiment [9], 0.522 mg/L; in experiment [10] it was 0.0337 mg/L; in experiment [11] it was 2.06 mg/L; in [12], 1.68 mg/L. Also, the IC50 neutralization came to 0.191 mg/L in experiment [13], 0.992 mg/L in [14] and 0.0138 mg/L in experiment [15].
For “PGT-122 (B cell culture well 4877_D15) (antibody)”, the Primary Neutralization Index (B cell culture supernatant) in [17] turned out to be 2.3; in experiment [19], 5.4; in experiment [18], 37.5; in [20], 1.3.
For the substance “Antibody of B cell culture well 5113_D22 (labelled PGT-132 in Table 26)”, the Primary Neutralization Index (B cell culture supernatant) in [16] worked out at 51; in experiment [17], 3; in experiment [18], 6.
In the case of PGT-125 monoclonal antibody (5123_A06), the IC50 neutralization in experiment [1] worked out at 0.0028 mg/L; in experiment [2], 0.0156 mg/L; in [3], 0.0124 mg/L; in experiment [4], 0.006 mg/L; in experiment [5], 0.0359 mg/L; in experiment [6], 0.0106 mg/L. The IC50 neutralization is above 10 mg/L in [7]; above 10 mg/L in [8]; 7.31 mg/L in experiment [9]; 0.0214 mg/L in experiment [10]; 5.78 mg/L in [11]; 0.0055 mg/L in experiment [12]. Also, the results for the IC50 neutralization in experiment [13], in experiment [14] and in experiment [15] were 0.0262 mg/L, 0.0128 mg/L and 0.0137 mg/L, respectively.
As to “PGT-136 monoclonal antibody (5329_C19; 5366_P21)”, the IC50 neutralization was 0.738 mg/L in experiment [1]; above 10 mg/L in experiment [2]; above 10 mg/L in experiment [3]; above 10 mg/L in experiment [4]; above 10 mg/L in [5]; 0.0065 mg/L in experiment [6]. In addition, the IC50 neutralization in experiment [7], in experiment [8], in [9], in experiment [10], in [11] and in experiment [12] was above 10 mg/L throughout. Further, the results for the IC50 neutralization in [13], in experiment [14] and in experiment [15] were above 10 mg/L, above 10 mg/L and 0.0135 mg/L, respectively.
Take “PGT-121 (B cell culture wells 4838_L06 and 4873_E03) (antibody)”: the Primary Neutralization Index (B cell culture supernatant) in [17] was 3.2 and 2.2; in experiment [19], 4.9 and 3.6; in experiment [18], 996 and 371; in [20], 1.4 and 0.8.
As for “1496_C09 (PG9) (TCN-109) monoclonal antibody”, the IC50 neutralization in experiment [1] worked out at 0.161 mg/L; in [3], 0.31 mg/L; in experiment [4] it was 0.0048 mg/L; in experiment [5], 0.214 mg/L; in [6], 0.113 mg/L; in experiment [7] it was 0.687 mg/L. The IC50 neutralization turned out to be 2.45 mg/L in experiment [8], 0.121 mg/L in experiment [11], 0.0375 mg/L in experiment [12] and 0.048 mg/L in experiment [15].
